What was measured:
Assay in all cases: Ligand Surface Binding Assay
[1] = biological target: ACVR2A-Halo (human, UniProt P27037 20-513)
[2] = biological target: ACVR2B-Halo (human, UniProt Q13705 19-512)
[3] = biological target: T1, BMPR2-Halo (human, UniProt Q13873 27-1038)
T1 sequence (looked up): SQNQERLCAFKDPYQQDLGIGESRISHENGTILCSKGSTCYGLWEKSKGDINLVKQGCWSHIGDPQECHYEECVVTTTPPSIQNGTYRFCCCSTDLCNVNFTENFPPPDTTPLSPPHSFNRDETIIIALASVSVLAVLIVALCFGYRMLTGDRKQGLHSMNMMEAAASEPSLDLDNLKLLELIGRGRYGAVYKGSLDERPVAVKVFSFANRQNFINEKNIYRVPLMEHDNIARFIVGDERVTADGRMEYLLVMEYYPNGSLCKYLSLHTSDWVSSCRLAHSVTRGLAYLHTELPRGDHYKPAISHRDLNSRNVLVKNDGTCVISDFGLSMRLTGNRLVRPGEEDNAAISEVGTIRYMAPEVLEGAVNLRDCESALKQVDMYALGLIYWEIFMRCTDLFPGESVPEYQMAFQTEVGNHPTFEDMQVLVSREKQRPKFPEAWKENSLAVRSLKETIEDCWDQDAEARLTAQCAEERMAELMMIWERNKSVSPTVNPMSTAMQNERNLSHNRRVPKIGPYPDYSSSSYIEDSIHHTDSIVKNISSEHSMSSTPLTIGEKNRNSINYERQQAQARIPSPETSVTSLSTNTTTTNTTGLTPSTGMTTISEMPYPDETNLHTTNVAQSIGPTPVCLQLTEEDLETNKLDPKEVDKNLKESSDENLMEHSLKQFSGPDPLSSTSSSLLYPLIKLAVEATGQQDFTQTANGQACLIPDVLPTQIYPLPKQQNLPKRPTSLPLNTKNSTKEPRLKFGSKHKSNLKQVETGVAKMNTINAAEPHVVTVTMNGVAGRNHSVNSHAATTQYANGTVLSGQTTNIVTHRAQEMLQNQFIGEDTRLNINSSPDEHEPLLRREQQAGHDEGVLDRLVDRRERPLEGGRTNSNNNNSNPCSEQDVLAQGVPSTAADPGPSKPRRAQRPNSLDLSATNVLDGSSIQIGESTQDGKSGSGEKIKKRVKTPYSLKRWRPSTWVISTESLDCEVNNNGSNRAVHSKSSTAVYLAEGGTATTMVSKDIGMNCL

Sequence of ACVR2B-Halo (Q13705 19-512): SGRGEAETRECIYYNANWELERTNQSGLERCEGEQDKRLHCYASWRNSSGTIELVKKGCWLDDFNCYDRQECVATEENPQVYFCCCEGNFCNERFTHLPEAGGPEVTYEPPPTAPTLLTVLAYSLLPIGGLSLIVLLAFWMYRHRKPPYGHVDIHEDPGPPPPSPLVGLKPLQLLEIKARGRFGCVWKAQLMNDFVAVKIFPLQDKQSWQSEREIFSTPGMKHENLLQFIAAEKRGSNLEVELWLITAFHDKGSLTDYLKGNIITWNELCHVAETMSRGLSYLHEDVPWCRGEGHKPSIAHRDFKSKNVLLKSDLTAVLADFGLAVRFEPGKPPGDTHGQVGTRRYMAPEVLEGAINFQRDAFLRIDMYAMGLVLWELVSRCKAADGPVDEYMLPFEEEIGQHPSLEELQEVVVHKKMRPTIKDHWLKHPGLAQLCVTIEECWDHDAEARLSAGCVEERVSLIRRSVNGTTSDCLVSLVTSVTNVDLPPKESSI
Sequence of ACVR2A-Halo (P27037 20-513): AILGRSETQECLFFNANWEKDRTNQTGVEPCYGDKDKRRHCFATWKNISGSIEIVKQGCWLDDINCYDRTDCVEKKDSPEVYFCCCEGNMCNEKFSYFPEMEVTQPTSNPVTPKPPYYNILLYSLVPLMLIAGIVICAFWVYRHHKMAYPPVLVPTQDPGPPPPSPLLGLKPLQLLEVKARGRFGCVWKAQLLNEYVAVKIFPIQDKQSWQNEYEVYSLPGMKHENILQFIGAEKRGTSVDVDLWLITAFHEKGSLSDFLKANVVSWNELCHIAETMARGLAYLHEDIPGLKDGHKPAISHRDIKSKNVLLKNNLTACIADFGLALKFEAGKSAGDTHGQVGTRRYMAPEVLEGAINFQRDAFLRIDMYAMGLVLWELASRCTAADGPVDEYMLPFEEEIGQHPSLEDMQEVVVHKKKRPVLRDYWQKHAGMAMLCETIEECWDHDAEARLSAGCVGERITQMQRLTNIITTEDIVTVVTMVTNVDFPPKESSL

- fold Activin A-Cy5 binding relative to untransfected cells [1]: ~29 fold
- fold Activin A-Cy5 binding relative to untransfected cells [2]: ~84 fold
- fold Activin A-Cy5 binding relative to untransfected cells [3]: ~27 fold
B1: Activin A-Cy5 (ligand, UniProt P08476 311-426, looked up)
chain: GLECDGKVNICCKKQFFVSFKDIGWNDWIIAPSGYHANYCEGECPSHIAGTSGSSLSFHSTVINHYRMRGHSPFANLKSCCVPTKLRPMSMLYYDDGQNIIKKDIQNMIVEECGCS
modifications: Cy5 label (NHS-activated Cy5, protein:dye ratio 1:2 in the labelling reaction)

Reference: publication doi:10.1101/2022.03.04.482944 (bioRxiv, 2022)
